Source: PMC5109294, “NANOG reprograms prostate cancer cells to castration resistance via dynamically repressing and engaging the AR/FOXA1 signaling axis”

Biological target: T1, FOXA1 (Homo sapiens, UniProt P55317 1-472)
T1 sequence: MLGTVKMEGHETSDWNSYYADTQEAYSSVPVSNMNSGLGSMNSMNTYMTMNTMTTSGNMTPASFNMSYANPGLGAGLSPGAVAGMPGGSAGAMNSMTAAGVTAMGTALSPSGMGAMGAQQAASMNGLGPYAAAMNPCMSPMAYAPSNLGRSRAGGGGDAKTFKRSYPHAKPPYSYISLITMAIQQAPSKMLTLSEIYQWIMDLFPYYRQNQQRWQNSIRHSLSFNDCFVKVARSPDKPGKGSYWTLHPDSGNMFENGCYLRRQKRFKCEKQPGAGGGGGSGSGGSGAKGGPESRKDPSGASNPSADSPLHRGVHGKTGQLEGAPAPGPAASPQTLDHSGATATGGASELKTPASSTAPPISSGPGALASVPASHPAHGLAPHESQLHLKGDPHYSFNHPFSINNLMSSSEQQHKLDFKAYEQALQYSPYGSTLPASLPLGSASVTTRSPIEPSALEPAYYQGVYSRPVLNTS
Experiment: EMSA; 100 ng protein; competed by 300x unlabeled probe; weaker than NP8 at 1:1; LightShift Chemiluminescent EMSA kit; probe annealed in 20 mM Tris-HCl pH 7.5, 150 mM NaCl; 4-20% native gel, 0.5X TBE; binding buffer and temperature not stated
Conditions: protein: recombinant; tags: GST (pGEX-6p-1); label: biotin (both strands); blunt; some single-stranded primer remains after annealing

B1: FOXA1 motif probe, UBE2C gene promoter (dsDNA)
DNA 1: CTTAGTGTTTATTTCAAGCT
DNA 2: AGCTTGAAATAAACACTAAG
Question: Does B1 bind?
Answer: Result: binds
